From the supplement of paper PMC12783771 come the findings set out here.

To fix the notation:
B1: library; numbered along this chain (parent)
chain: MNIQIGELAKRTACPVVTIRFYEQEGLLPPPGRSRGNFRLYGEEHVERLQFIRHCRSLDMPLSDVRTLLSYRKRPDQDCGEVNMLLDEHIRQVESRIGALLELKHHLVELREACSGARPAQSCGILQGLSDCVCDTRGTTAHPSD

Series [1] covers variants of B1. Description: sfGFP reporter fluorescence (15 h) (µM FITC); higher = higher leak. The note with it: library round: Round 0; ligand: none. In short, it runs like this:
(§1)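 Values are endpoint sfGFP fluorescence given as µM FITC equivalents. Fluorescence was read at 485/528 nm on a Synergy Neo2, and FITC standard curves were prepared in 50 mM sodium borate pH 8.5. Reactions of 1 μL combined BL21 Star (DE3) PANOx-SP extract, pPbrR-sfGFP reporter, 30 μg/mL GamS and linear PbrR templates (PCR-made, Echo-normalized to 5 nM), with 1 µM lead chloride, 30 µM zinc acetate or no metal, for 15 hr at 30 °C.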

Variants of B1 are the subject of series [2]. Description: sfGFP reporter fluorescence (15 h) (µM FITC); higher = stronger transcriptional activation. The note with it: library round: Round 0. The essentials: as §1

± gives the standard deviation of the averaged measurements.

Take I3H: the sfGFP reporter fluorescence in series [1] was determined as 0.059 ± 0.001; in series [2] (ligand: 1 µM Pb), 0.0707 ± 0.0021; in series [2] (ligand: 30 µM Zn) it was 0.356 ± 0.01.
On the same counts, the results for L62V are 0.0621 ± 0.0018, 0.08008 ± 0.00078 and 0.396 ± 0.0088.
On to L62W, for which the sfGFP reporter fluorescence in series [1] stood at 0.0616 ± 0.0042; in series [2] (ligand: 1 µM Pb), 0.0603 ± 0.0034; in series [2] (ligand: 30 µM Zn), 0.0665 ± 0.0013.
Consider L110D, for which the sfGFP reporter fluorescence came to 0.0575 ± 0.0015 in series [1], 0.0586 in series [2] (ligand: 1 µM Pb) and 0.0574 ± 0.00078 in series [2] (ligand: 30 µM Zn).
On the same counts, the results for L110A are 0.0727 ± 0.0013, 0.0698 ± 0.0018 and 0.0729 ± 0.0026.
On the same counts, the results for R53A are 0.0614 ± 0.0018, 0.06652 ± 0.00026 and 0.487 ± 0.074.
With P61N K104V L107C, the sfGFP reporter fluorescence in series [1] turned out to be 0.283 ± 0.021; in series [2] (ligand: 1 µM Pb) it was 1.28 ± 0.11; in series [2] (ligand: 30 µM Zn), 2.54 ± 0.079.
For the variant K10A, the sfGFP reporter fluorescence in series [1] came to 0.05644 ± 0.00052; in series [2] (ligand: 1 µM Pb), 0.0687 ± 0.0023; in series [2] (ligand: 30 µM Zn) it was 0.567 ± 0.026.
On the same counts, the results for K104V L107C are 0.184 ± 0.0062, 1.13 ± 0.23 and 2.31 ± 0.5.
On the same counts, the results for L58C are 0.05846 ± 0.00026, 0.05772 ± 0.00026 and 0.06121 ± 0.00052.
As for E109F, the sfGFP reporter fluorescence was 0.0621 ± 0.0013 in series [1], 0.09126 ± 0.00052 in series [2] (ligand: 1 µM Pb) and 1.32 ± 0.051 in series [2] (ligand: 30 µM Zn).
For E109R, the values for the sfGFP reporter fluorescence in series [1], in series [2] (ligand: 1 µM Pb) and in series [2] (ligand: 30 µM Zn) were 0.06542 ± 0.00026, 0.102 ± 0.0078 and 1.86 ± 0.052, respectively.
P143H: the sfGFP reporter fluorescence was determined as 0.0585 ± 0.0018 in series [1], 0.0786 ± 0.0013 in series [2] (ligand: 1 µM Pb) and 0.764 ± 0.072 in series [2] (ligand: 30 µM Zn).
With P143Q, the sfGFP reporter fluorescence turned out to be 0.0566 ± 0.0039 in series [1], 0.0735 ± 0.0049 in series [2] (ligand: 1 µM Pb) and 0.871 ± 0.098 in series [2] (ligand: 30 µM Zn).
For the variant V108S, the figures for the sfGFP reporter fluorescence in series [1], in series [2] (ligand: 1 µM Pb) and in series [2] (ligand: 30 µM Zn) were 0.0568 ± 0.0026, 0.0696 and 0.772 ± 0.061, respectively.
On the same counts, the results for V108D are 0.061 ± 0.00078, 0.0931 ± 0.0015 and 1.45 ± 0.068.
On the same counts, the results for L107C G128I are 1.34 ± 0.036, 3.12 ± 0.11 and 4.14 ± 0.064.
On the same counts, the results for E23A are 0.0608 ± 0.0015, 0.05827 ± 0.00052 and 0.104 ± 0.0026.
Take K104A: the sfGFP reporter fluorescence is 0.05974 ± 0.00052 in series [1], 0.0759 ± 0.0021 in series [2] (ligand: 1 µM Pb) and 0.591 ± 0.037 in series [2] (ligand: 30 µM Zn).
On the same counts, the results for K104F are 0.0581 ± 0.011, 0.117 ± 0.029 and 0.889 ± 0.037.
K104R: the sfGFP reporter fluorescence in series [1] worked out at 0.0621 ± 0.006; in series [2] (ligand: 1 µM Pb), 0.0958 ± 0.024; in series [2] (ligand: 30 µM Zn), 0.946 ± 0.16.
On the same counts, the results for C79D are 0.05882 ± 0.00026, 0.059 ± 0.0021 and 0.0564 ± 0.001.
On the same counts, the results for I97A are 0.0663 ± 0.0021, 0.133 ± 0.0015 and 1.138 ± 0.007.
On the same counts, the results for I97M are 0.0574 ± 0.0023, 0.057 ± 0.0023 and 0.2807 ± 0.00052.
For the variant S115A, the sfGFP reporter fluorescence in series [1] came out at 0.0599 ± 0.00078; in series [2] (ligand: 1 µM Pb), 0.0663 ± 0.0047; in series [2] (ligand: 30 µM Zn), 0.478 ± 0.14.
For N83H, the sfGFP reporter fluorescence in series [1] came out at 2.73 ± 0.37; in series [2] (ligand: 1 µM Pb), 2.63 ± 0.52; in series [2] (ligand: 30 µM Zn) it was 3.526 ± 0.0086.
With N83Q, the results for the sfGFP reporter fluorescence in series [1], in series [2] (ligand: 1 µM Pb) and in series [2] (ligand: 30 µM Zn) were 0.06487 ± 0.00052, 0.0693 and 1.55 ± 0.4, respectively.
On the same counts, the results for P30C are 0.0599 ± 0.0023, 0.0744 ± 0.0026 and 0.608 ± 0.025.
For the variant P30V, the sfGFP reporter fluorescence in series [1] came out at 0.0619 ± 0.001; in series [2] (ligand: 1 µM Pb) it was 0.0924 ± 0.001; in series [2] (ligand: 30 µM Zn), 1 ± 0.0021.
In the case of V16I, the values for the sfGFP reporter fluorescence in series [1], in series [2] (ligand: 1 µM Pb) and in series [2] (ligand: 30 µM Zn) were 0.05864 ± 0.00052, 0.0768 ± 0.0018 and 0.981 ± 0.061, respectively.
On the same counts, the results for V16W are 0.0599 ± 0.0018, 0.0623 ± 0.0021 and 0.064 ± 0.00078.
Regarding V16N, the sfGFP reporter fluorescence is 0.0643 ± 0.0013 in series [1], 0.08686 ± 0.00052 in series [2] (ligand: 1 µM Pb) and 0.487 ± 0.011 in series [2] (ligand: 30 µM Zn).
On the same counts, the results for V16H are 0.06542 ± 0.00026, 0.109 ± 0.0086 and 0.447 ± 0.0096.
C134Q: the sfGFP reporter fluorescence in series [1] was determined as 0.0652; in series [2] (ligand: 1 µM Pb), 0.0953 ± 0.001; in series [2] (ligand: 30 µM Zn), 1.33 ± 0.4.
For C134A, the sfGFP reporter fluorescence in series [1] amounted to 0.0652 ± 0.001; in series [2] (ligand: 1 µM Pb), 0.0821 ± 0.0052; in series [2] (ligand: 30 µM Zn), 0.59 ± 0.049.
For M60N, the sfGFP reporter fluorescence in series [1] worked out at 0.0616 ± 0.001; in series [2] (ligand: 1 µM Pb) it was 0.0607 ± 0.0018; in series [2] (ligand: 30 µM Zn), 0.061 ± 0.0013.
On the same counts, the results for M60K are 0.0605 ± 0.001, 0.061 ± 0.0018 and 0.0625 ± 0.0029.
On the same counts, the results for M60A are 0.0643 ± 0.0029, 0.0619 ± 0.001 and 0.0713 ± 0.007.
V46E: the sfGFP reporter fluorescence in series [1] is 0.0579; in series [2] (ligand: 1 µM Pb) it was 0.0806 ± 0.0015; in series [2] (ligand: 30 µM Zn) it was 0.724 ± 0.053.
On the same counts, the results for V46W are 0.0583 ± 0.0021, 0.0757 ± 0.0034 and 0.429 ± 0.0044.
On the same counts, the results for V46R are 0.0594 ± 0.001, 0.08704 ± 0.00026 and 0.75 ± 0.054.
On the same counts, the results for V46M are 0.0563 ± 0.0018, 0.09 ± 0.0075 and 1 ± 0.1.
For the variant V46L, the sfGFP reporter fluorescence in series [1] is 0.0542 ± 0.0047; in series [2] (ligand: 1 µM Pb), 0.0847 ± 0.015; in series [2] (ligand: 30 µM Zn), 0.811 ± 0.057.
Regarding R39D, the sfGFP reporter fluorescence in series [1] stood at 0.0603 ± 0.0018; in series [2] (ligand: 1 µM Pb), 0.0608 ± 0.0026; in series [2] (ligand: 30 µM Zn), 0.0597 ± 0.0036.
